This note sets out measurements from US8334260B2, “sFRP and peptide motifs that interact with sFRP and methods of their use” (The United States of America as represented by the …, priority 2001, dated 2012).

The target of experiment [1] is T1, RANKL (Mus musculus, UniProt O35235).
T1 construct: For ELISA assays, recombinant soluble RANKL and TRAIL, and antibodies directed against these proteins were obtained from PeproTech; purchased PeproTech (Rocky Hill, N.J.)
T1 sequence (O35235 158-316): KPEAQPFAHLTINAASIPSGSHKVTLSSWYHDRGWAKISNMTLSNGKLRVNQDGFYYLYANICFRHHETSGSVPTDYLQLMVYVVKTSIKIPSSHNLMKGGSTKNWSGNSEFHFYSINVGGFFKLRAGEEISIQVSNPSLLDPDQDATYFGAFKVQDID
The experiment can be described thus: ELISA of soluble RANKL binding to wells coated with sFRP-1, sFRP-1 derivatives or sFRP-2. Particulars: RANKL variant with amino-terminal sequence beginning with residue 158. The method, then:
(§1) ELISA experiments were generally performed as previously described (Uren et al., J. Biol. Chem. 275:4374-4382, 2000), with modifications depending on the sFRP binding partner to be tested. Typically, wells were coated with 0.5 or 1 μg of sFRP-1, blocked with BSA (0.2%, 1%, or 4%) and then incubated with putative binding partner overnight at room temperature. When investigating the binding of peptide/AP chimeras, after aspiration of bacterial broths, wells were washed and incubated with p-nitrophenolphosphate (pNPP). Color development was determined at 405 nm with an ELISA reader. For competition experiments, soluble peptides were preincubated with peptide/AP chimeras in bacterial broth for 30 min at room temperature prior to transfer into ELISA wells coated with sFRP-1 or BSA. When testing RANKL binding to sFRP-1, serial dilutions of soluble RANKL were assayed in replicate. Following overnight incubation at room temperature, RANKL solutions were aspirated and bound RANKL was detected by sequential incubations with primary antibody to RANKL, secondary antibody coupled with AP and pNPP. Similar experimental designs were employed when other TNFα family members were examined for binding to sFRPs, and when sFRP-1 derivatives or sFRP-2 were the binding targets for RANKL.
(§2) The possibility that sFRP-1 (SEQ ID NO: 3) and RANKL interact directly with each other was tested using an ELISA assay. […] RANKL was then incubated in these wells and in adjacent wells that had only been treated with BSA.

Experiment [2] deals with T2, RANKL (Homo sapiens, UniProt O14788).
T2 construct: For ELISA assays, recombinant soluble RANKL and TRAIL, and antibodies directed against these proteins were obtained from PeproTech; purchased PeproTech (Rocky Hill, N.J.)
T2 sequence (O14788 140-317): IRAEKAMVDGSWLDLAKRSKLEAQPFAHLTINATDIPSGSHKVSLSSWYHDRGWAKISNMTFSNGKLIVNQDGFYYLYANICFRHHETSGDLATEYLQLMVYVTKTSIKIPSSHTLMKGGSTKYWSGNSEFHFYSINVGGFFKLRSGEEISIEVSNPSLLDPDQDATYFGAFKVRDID
Described as above. The note with it: ELISA, coated wells versus BSA. As to the method: as §1, §2
(In general: ELISA stands for enzyme-linked immunosorbent assay.)

Experiment [3] concerns co-cultures of primary osteoblasts and bone marrow cells. The experiment can be described thus: Osteoclastogenesis co-culture of primary osteoblasts and bone marrow cells (TRAP+ cells). It is filed as cell-based, mouse. The note with it: vitamin D3 (10^-8 M) and PGE2 (10^-7 M). The method, then:
Osteoblastic cells were prepared from the calvaria of newborn mice by digestion with 0.1% collagenase (Worthington Biochemical Co., Freefold, […]) and 0.2% dispase (Godo Shusei, Tokyo, Japan). Bone marrow and spleen cells were obtained from adult and from newborn mice, respectively (Udagawa et al., J. Exp. Med. 182: 1461-1468, 1995). Osteoblastic cells were co-cultured with bone marrow or spleen cells as described previously (Udagawa et al., J. Exp. Med. 182: 1461-1468, 1995). In short, primary osteoblastic cells (2×10^4/well) and nucleated spleen cells (1×10^6/well) or marrow cells (5×10^5/well) were co-cultured in 48-well plates (Corning Glass Inc., Corning, N.Y.) with 0.4 mL of α-MEM (GIBCO/BRL, Grand Island, N.Y.) containing 10% fetal bovine serum (Cytosystems, Castle Hill, NSW, Australia) in the presence of test chemicals. Cultures were incubated in quadruplicate and cells were replenished on day 3 with fresh medium. Osteoclast formation was evaluated after culturing for 6-7 days. Adherent cells were fixed and stained for tartrate-resistant acid phosphatase (TRAP), and the number of TRAP-positive osteoclasts was scored as described (Udagawa et al., J. Exp. Med. 182: 1461-1468, 1995). For TRAP staining, adherent cells were fixed with 4% formaldehyde in PBS for 3 minutes. After treatment with ethanol-acetone (50/50, vol/vol) for 1 minute, the well surface was air dried and incubated for 10 minutes at room temperature in an acetate buffer (0.1 M sodium acetate, pH 5.0) containing 0.01% naphthol AS-MX phosphate (Sigma) as a substrate and 0.03% red violet LB salt (Sigma) as a stain for the reaction product in the presence of 50 mM sodium tartrate. TRAP-positive cells appeared dark red, and those with three or more nuclei were scored as multinucleated and considered as osteoclasts. […] CTR expression was determined either by autoradiography with ^125I-salmon calcitonin or by immunohistochemical localization using an array of antibodies we have developed as described by Quinn et al., Bone 25:1-8, 1999.

The next experiment has as its target TNFα (Homo sapiens, UniProt P01375). Kind of experiment: ELISA of TNFα binding to sFRP-1. Particulars: ELISA format. As to the method:
as §1, with “RANKL. […]” for “RANKL.”

In the next experiment the test system is RAW264.7 cells. Kind of experiment: RANKL-independent (TNFα-dependent) osteoclast formation in RAW264.7+TNFα+TGFβ. It counts as cell-based. Particulars: present during the first three days of culture. The method, then: The effect of sFRP-1 was assessed upon a RANKL-independent method of osteoclast formation using the monocyte/macrophage cell line RAW264.7 (Quinn et al., Journal of Bone and Mineral Research. 16, 1787-1794, 2001) and was compared with that of osteoprotegerin (FIG. 14).
The effect of bacterially expressed CRD was assessed in three different cell culture models of osteoclast formation. These were: (1) bone marrow cells+RANKL+M-CSF, (2) the macrophage/monocyte cell line RAW264.7+RANKL, and (3) RAW264.7+TNFα+TGFβ (Horwood et al., Journal of Immunology 166:4915-4921, 2001; Quinn et al., Journal of Bone and Mineral Research. 16, 1787-1794, 2001).

Another experiment deals with T3, TRAIL (Homo sapiens, UniProt P50591).
T3 construct: For ELISA assays, recombinant soluble RANKL and TRAIL, and antibodies directed against these proteins were obtained from PeproTech; purchased PeproTech (Rocky Hill, N.J.)
Kind of experiment: ELISA of TRAIL binding to sFRP-2. The note with it: ELISA format. As to the method:
as §1, with “RANKL. […]” for “RANKL.”

T3 sequence (P50591 39-281 limits assumed, species assumed): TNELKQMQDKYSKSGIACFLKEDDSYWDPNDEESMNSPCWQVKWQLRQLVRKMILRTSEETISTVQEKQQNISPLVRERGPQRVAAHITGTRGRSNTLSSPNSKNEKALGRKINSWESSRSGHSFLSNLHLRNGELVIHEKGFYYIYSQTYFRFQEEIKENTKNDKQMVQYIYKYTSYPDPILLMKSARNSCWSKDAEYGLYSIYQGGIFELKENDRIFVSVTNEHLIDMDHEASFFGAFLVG
Chain of TNFα (P01375 77-233 limits assumed, species assumed): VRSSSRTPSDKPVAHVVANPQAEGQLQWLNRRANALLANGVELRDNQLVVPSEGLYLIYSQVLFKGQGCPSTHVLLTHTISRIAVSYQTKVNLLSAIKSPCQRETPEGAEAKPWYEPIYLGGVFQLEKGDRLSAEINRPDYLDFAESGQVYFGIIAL

B1: sFRP-1: recombinant human secreted Frizzled-related protein-1 (protein, listed as Homo sapiens)
chain: MGIGRTEGGRRGAALGVLLALGGASGRGLGSEYDYVSFQSDIGPYQSGRFYTKPPQCVDIPADLRLCHNVGYKKMVLPNLLEHETMAEVKQQASSWVPLLNKNCHAGTQVFLCSLFAPVCLDRPIYPCRWLCEAVRDSCEPVMQFFGFYWPEMLKCDKFPEGDVCIAMTPPNATEASKPQGTTVCPPCDNELKSEAIIEHLCASEFALRMKIKEVKKENGDKKIVPKKKKPLKLGPIKKKDLKKLVLYLKNGADCPCHQLDNLSHHFLIMGRKVKSQYLLTAIHKWDKKNKEFKNFMKKMKNHECPTFQSVFK
For B1, in the experiment with RANKL [1], the “binding to a derivative of RANKL lacking the A-C2 motif” value is recorded as “observed binding”. For the same molecule, the “binding to RANKL” value in the experiment with RANKL [2] is “bound specifically”. The “reduction of the number of multinucleated TRAP+ cells” value in experiment [3] (300 ng/mL) worked out at 50%; in experiment [3] (1.6 ug/mL) it was 95%. Also, the “effect on osteoclast formation” value in experiment [3] is recorded as “dose-dependent inhibitory activity”. Also, the “binding to TNFα” value in the experiment with TNFα is on record as “can bind”. In the experiment with RAW264.7 cells, the “effect on TNFα-dependent osteoclast formation” value is on record as “inhibited”.

B2: sFRP-2: recombinant mouse sFRP-2 purified from transfected MDCK cells (protein)
chain: LFLFGQPDFSYKRSNCKPIPANLQLCHGIEYQNMRLPNLLGHETMKEVLEQAGAWIPLVMKQCHPDTKKFLCSLFAPVCLDDLDETIQPCHSLCVQVKDRCAPVMSAFGFPWPDMLECDRFPQDNDLCIPLASSDHLLPATEEAPKVCEACKTKNEDDNDIMETLCKNDFALKIKVKEITYINRDTKIILETKSKTIYKLNGVSERDLKKSVLWLKDSLQCTCEEMNDINAPYLVMGQKQGGELVITSVKRWQKGQREFKRISRSIRKLQC
In the case of B2, the “binding to TRAIL” value with TRAIL is “can bind”. In addition, the “binding to RANKL” value with RANKL [2] is reported as “can bind”.
